In patent publication US20230226096A1 (Orna Therapeutics, Inc., priority 2020, published 2023):

B1: Rafivirus LPXYC222841 (nucleic acid, listed as Rafivirus sp.)
DNA: GTGTCCGGGAAGCGACTCAAGCTTTTGACTGAGTCTCTACACCTTCATCCGTAACATCTTTAAGTTTATGTGCCTATGGACCTCTAGTGCACTGCCATCACCGGGGGTGTATTGGACTGGTTTTTCCACAATCCATTCATCCTGAGGAATTTTGGCTTTGTTACTAGGATGGTCCCACCACACGCTTATCTGTGCCTATTGTGTCAACCATGTTCTTAAGTAGTTGTGCCCGTGGGTGAGTAGATAACCACAACAATCCGATAAAGCATCTCGCAAGGATGTGAGTAATGGAGTGTATGTGCTACAGAGACCCACAACCTGAACCAAGAGAGACACAGTGAGGATTGTAAAGGGGGAACTCTTTGAAAGGGCATGTCCCGCAATTCCTACTGACTGACACCGGGGGTTGGTGTCGGTGGATTTTAGCAAATCCTGTTACTGGGTGATAGCCTTGTGCACTTCACTTGGTTCTTGTATAAGTGCTGTA
B2: Bovine rhinitis A virus (nucleic acid)
DNA: TTTTGCGGCTCTGCCGCCGTTCGGGTTTTACCTGTTTTCACAGAGCAAAACAGGACCTCTAGTTTCGTGCTTAAACGAGATCATGCTCGAACTAGAACTATAACGCTGGTCACTGGACCCGTGCCGCGCCTTGCGGATCTTTGCGGGAATGGTGGCTAGTGGGCTGTGGAAGTGACTCTAACCACACGCCCCTCAAGTGTGGGAAAACACGAACTGGTGTAGCGACGACGATAGGCCTTGGGACACCCTCTCCAGTGATGGAGACCCAAGGGGCCAAAAGCCACGCCTTGTGCCCTGTCGTTCACAACCCCAGTGCAGTTCGTGCCAGTACCTGCTTTTGGGAAGTGTGCTTTGGACAGCTGAAAACAGTCCTAGTGGGAGACTAAGGATGCCCAGGAGGTACCCGGAGGTAACAAGTGACACTCTGGATCTGACTTGGGGAGAGCGGGTCTGCTTTACAGACGCCACTCTTTAAAAAACTTCTATGTCTCGTCAGGCACCGGAGGCCGGGCCTTTTCCTTTAAAACAATACACTTT
modifications: Bovine rhinitis A virus
B3: Bovine picornavirus isolate TCH6 (nucleic acid)
DNA: TTGGATCTGAGCAGGGGCCCCCTTTGGGTTGCTTTACAACTCAACTGGGGGTTAAAAAACGTCTAACCCGACACGCCAGAGGGATCTGGTTTCCTTTTATTTCTTTTACTCACCACTGGATGCAGATTGACGATAAACGTTGTTGTTTGTGACTATTGACTTGATCTGCTTCTACGGGTTTACTTTCACTGTTATACTTCTTGCTTTGTTTGGTGTTCACTGTACTTTGTCTCCTTCTACATTTCACA
B4: Bat dicibavirus (nucleic acid)
DNA: GTATAGCACCGGAATGGTATTTTACTACTCCAAGTATACGTACTAGGAGTTAAACCCTGTAATTTACAGGGGATTTAGTGACTTTTATCCGTAAAAGTCGATTGGACGTTAATCGGTAACGAGGCCAAGTACCGTGAACCAATTTAAAAACGTATTTTCTCATGTGGTAGAACCAACTTGGAAATAGCATGGCATATAGGTTGTTTAGGG
B5: Bovine viral diarrhea virus 3 (nucleic acid)
DNA: GTATACGCCCAGTTAGTTCAGGTGGACGTGTACGATTGGGTATCCCAAATTAATAATTTGGTTTAGGGACTAAATCCCCTGGCGAAGGCCGAAACAGGTTAACCATACCTTTAGTAGGACGAGCATAATGGGGGACTAGTGGTGGCAGTGAGCTCCCTGGATCACCGAAGCCCCGAGTACGGGGTAGTCGTCAATGGTTCGACGCATCAAGGAATGCCTCGAGATGCCATGTGGACGAGGGCGTGCCCACGGTGTATCTTAACCCAGGCGGGGGCCGCTTGGGTGAAATAGGGTTGTTATACAAGCCTTTGGGAGTACAGCCTGATAGGGTGTTGCAGAGACCTGCTACACCACTAGTATAAAAACTCTGCTGTACATGGCAC
B6: Boone cardiovirus 1 (nucleic acid, listed as Cardiovirus sp.)
DNA: TACGATCGCTGTACATTCCACTACTGCCAATTAGCTCCCCCTTCCCGTTGCTCCCCTCTATAAGGAGAGCCTTCTCTTGCAAAGGTGAAGCCTTCACCCCCGGTCGAAGCCGCTTGGAATAAGACAGGGTTATTTTCTCCTCTCCTCGGCGCTTGCCTCTTCTAAGCTGAATAGGTTCTATCTATTCAGGCGGATGGTCTGGTCCGTTCCTTCTTGGACAGAGTGTGTATCTGGGTTTTCCGGATCTCGACCACACACTCACCAGAGCTCAGGAGTGATTAAGTCAAGGCCCGATCTGCGGCGAAAAGGAAATGAAGTATTTTGCAGCTGTAGCGACCTCTCAAGGCCAGCGGATTTCCCCACCTGGTGACAGGTGCCTCTGGGGCCAAAAGCCACGTGTTAATAGCACCCTTGAGAGCGGTGGTACCCCACCACCCTGCAAATTATGGATTTGACTTAGTAACTAAAAGATTGACTTGGCATACCTCAACCTGAGCGGCGGCTAAGGATGCCCTGAAGGTACCCGTGTTGAAATCGCTTCGGCGACCATGGATCTGATCAGGGGCCCTGCCTGGAGTGGTTCTATCCCACACAGCGTAGGGTTAAAAAACGTCTAACCGCCCCACAAAGACCCCGGCAGGGATGCCGGTTTCCTTTTTACCAATTCTTGACACT
B7: Bat Picornavirus 1 (nucleic acid)
DNA: GAAACCCGTATACACCGGACCTTTTCTCCCCTCCCTCTCCACTTACCTTTTTCCCCTCTTCGGCATGAAACAAGGATTATTCAAGTGGAAACGCGATTTAATATGCGGCTGGCCACCGCGGAATAACGGCAATTGTGTATCTGCTGGAAGCCAAGCCTGCCTAGCCGATAGCCCTTGACCGGGTGTGTAGGATAGCCCAGGAACCAGCAATACGCGACAGGTTATGGTAGAGTAGATACCTAGCCAGGGGCAATGGGACTGCATTGCATATCCCTAATGAACCATTGAGATTTCTCTGGTCATTACCCGGTGATGGTTACTAGAGGGGGGCCTCTAGTACTAGATCTATACTGCCTGATAGGGTCGCGGCTGGCCGACCATGACCTGTATAGTCAGTTGATTTGAGCAAT
B8: Breda virus (nucleic acid)
DNA: ATCACCTAGTACTTACAAGCGGGTCAAACCGCCCTCCGGAACGGTCATAACCCCCTCCCGAACGTGCGCTTGACGTGACTGGTCTTTCAGTCTAGCTTTCTGAGAAATACTCCGGGGTTGTAACCCACCATTTTGACCTTTGGTCAGTTTGGTAACACTCCAACCAAACAGCATCTGACCCACCTCCAGCTTGCTGCAGGCCATTTGGACCAAACGGGTTCAGATATCTTGTGGCTAAACCTCTGACCCACCTCCAGTTTACTGCAGGCCTTTTGGACTAAACGGGTACAGACTCTTTGTGGTTAGTTTTTAACTACCCACTGTTTAGCCGCCAACCTGATTTTTATTGTTACAAAATTTTGTGTTTACACATTATTTTCTTACGGTTGGCAGTTTGTTTGGTTGTTTGCACAGTTTTTGCTGATACCAATTTTTACTGTGCTTTTGGTGTTTTCGGCTAAGGCTGTTTTTCACATACTTAGTTTGCTTGAAGTAACCTTCACAACATCTGTTTTGTTTTTGGTTTCTAAGGTAAAGAGTTTCAGGAAAAAACATAGGCGCCCATCTTGTGGTGTCTAGTTTTAATTAATCTGGCAAACAAGTATCAAGTCATCGACTCCCTTTGGAGTGAGACTTACGAGTACCAATTCGCCTATTTTGGCCATCCATATAAAA
B9: Bat sapelovirus (nucleic acid, listed as Sapelovirus sp.)
DNA: GACAGGTGTTTTGGAGGGCGGATGACGATATCTGGCTGGCCACCAGGGAATAACGGCAAATGTCTGATCATACGGTTCACAAGTCTACCGGCGATAGTGGTTCAACACCATGTGTAGCAGGGATTCTTGCGTATGTGAAGGCGACAGTGC
B10: Bovine nidovirus TCH5 (nucleic acid, listed as Bovine nidovirus)
DNA: CACCAATAGATTAGTCAAGCTGTCTATAGGCATAAACTAACCCCCAACCCCATTACCCCGGGGCCAGGTGGGCCGCCGCCTTCGGGCAAACCCGTGCGCTGGTATAATCAAGGTTCACAGCCAGATTCACTGCCGGTTAGCTAGTGGGGCGGTAGCCTGGCAAAACCCGAAGAGGTTGGAAAGGGAACTTCAGGGTAGTTTATCCTAGGCTAGCGTAGCTACAGTTCGGTCAAGATAACCGTCCTGGTGCTAGGGCTAGTAGAGACAGTGGTAACTTGGACAAGGGTCCAGGGCCACTTTAGGGAATACCCTACGGAAGGCTAGGTCCGTAAGGAAGACCCCCGCAGTTGTCCGCGGTTGAGCAGAGCTCCTGCGTAGACAAAAGGCAAAAAGTGGATTACATTCGCCTGCAGGAAAAGGCAAACGTCGTTGGAGTCGGAGCTAAAGTACTGGACGATTGATACCACGCCTGCTGCGGTAGATAAA
B11: Bat Iflavirus (nucleic acid, listed as Iflavirus sp.)
DNA: ACGAATCGGTATACGCTTCGGTACCTATTGTTGCAAGTTCGTTCCCTATTTTCGATTTGCCTGCCCGAATTTGACTCAAACAATTGTGACATACTATGTCTCTGTTTGAAAGCACTACACGAGTTTGCGCCCAGCATGTATGTTTTCAAGTCTTTTGTATAAGTCTGCCTCTATAGTGGTTTTCTTTGACCTTAAAGCCTTGTCAACCATCCTATATGCTGCATCGAGACTTGATGTCAATCTGCCTCTACTACGCAAATGTCTAGTAATTAGTTATAAGGTTTTACTATTTTCCCTCATTTCCAATTTTAGTTTGTAGTGTATGTGAGTATCATTCTTACTCCGACTGTTAAGAGAAACCAATTTATAGTCGTTAAATATGATAAATGGAATGAATGATGGTGTCATTTTAAAAACACTCTTCTCTATAGGCGTAAGCATTCTCGCTCTTAGAGTCGTAAAGAAGAAATGCCGTGTCTATCAGTATGTTATGCGATTTATTTTCTGCCACGCGCTTCTAGTGCAATCTAGTTGACATACAGACATTGCCTACCACTCGCGAGGGTCGACCGGTAGTGTAAGGAGTAAGTGATGATTTCCGCTTATTCTGTACCCTTTGCCTGGTGAGGACAGATCCTGACTAATTTTAAATATAAATGAACACTAGCTTCCAAG
B12: Bat Picornavirus 2 (nucleic acid)
DNA: GGGTTTTACGAAACCCGTATACACCAGACCTTTTCTCCCCTCCCCCTCCACCTACCTTTTCCCCCTCTTTGGACCGAAACAAGGACACGTAAGTGGAAACGCGATTTTATATGTGGTTGGCCACCACGGAATAACGGCAATTGTCTACATGTGGGAAGTGCAACCTCCCTAGCCGATAACCCCTGACCGGGTGTGTAGGATAGGAAAGGTGCCCACTGTGGGCGACAGGTTATGGTAGAGTGGATACCTAGCCAGGGGCAATGGGACTGCTTTGCATATCCCTAATGAAGTATTGAGATTTCTCTGCTCATTACCCGGTGATGGTTGTGTGGGGGGGGCCCCATACACTAGATCCATACTGCCTGATAGGGTCGCGGCTGGCCGACCATAACCTGTATAGTCAGTTGAATTCAGCCAAG

system: HEK293 cells; format: cell-based, human; conditions: luminescence from secreted Gluc in supernatant 24 hours after transfection of HEK293 cells; circular RNA encoding Gluc with the named IRES (UTR truncated to 675 nt)

Molecule	Expression
B1	2.22E+05
B2	3.62E+06
B3	1.21E+05
B4	7.43E+04
B5	2.70E+06
B6	2.62E+06
B7	1.85E+07
B8	1.16E+05
B9	8.05E+04
B10	1.17E+05
B11	9.76E+04
B12	7.99E+07
